# Results from doi:10.1101/2023.04.10.536218.
# Target: major capsid protein VP1 of sheep polyomavirus (ShPyV) (sheep polyomavirus (ShPyV))
# Assay: crystal structure
substance,measurement,value
major capsid protein VP1 of sheep polyomavirus (ShPyV) (natural protein),stoichiometry N,5
